According to patent US20250092426, “CAS ENDONUCLEASES AND RELATED METHODS” (Flagship Pioneering Innovations VII, LLC, published 2025):

Molecular target: T1, CasEnd-10 (synthetic construct)
T1 chain: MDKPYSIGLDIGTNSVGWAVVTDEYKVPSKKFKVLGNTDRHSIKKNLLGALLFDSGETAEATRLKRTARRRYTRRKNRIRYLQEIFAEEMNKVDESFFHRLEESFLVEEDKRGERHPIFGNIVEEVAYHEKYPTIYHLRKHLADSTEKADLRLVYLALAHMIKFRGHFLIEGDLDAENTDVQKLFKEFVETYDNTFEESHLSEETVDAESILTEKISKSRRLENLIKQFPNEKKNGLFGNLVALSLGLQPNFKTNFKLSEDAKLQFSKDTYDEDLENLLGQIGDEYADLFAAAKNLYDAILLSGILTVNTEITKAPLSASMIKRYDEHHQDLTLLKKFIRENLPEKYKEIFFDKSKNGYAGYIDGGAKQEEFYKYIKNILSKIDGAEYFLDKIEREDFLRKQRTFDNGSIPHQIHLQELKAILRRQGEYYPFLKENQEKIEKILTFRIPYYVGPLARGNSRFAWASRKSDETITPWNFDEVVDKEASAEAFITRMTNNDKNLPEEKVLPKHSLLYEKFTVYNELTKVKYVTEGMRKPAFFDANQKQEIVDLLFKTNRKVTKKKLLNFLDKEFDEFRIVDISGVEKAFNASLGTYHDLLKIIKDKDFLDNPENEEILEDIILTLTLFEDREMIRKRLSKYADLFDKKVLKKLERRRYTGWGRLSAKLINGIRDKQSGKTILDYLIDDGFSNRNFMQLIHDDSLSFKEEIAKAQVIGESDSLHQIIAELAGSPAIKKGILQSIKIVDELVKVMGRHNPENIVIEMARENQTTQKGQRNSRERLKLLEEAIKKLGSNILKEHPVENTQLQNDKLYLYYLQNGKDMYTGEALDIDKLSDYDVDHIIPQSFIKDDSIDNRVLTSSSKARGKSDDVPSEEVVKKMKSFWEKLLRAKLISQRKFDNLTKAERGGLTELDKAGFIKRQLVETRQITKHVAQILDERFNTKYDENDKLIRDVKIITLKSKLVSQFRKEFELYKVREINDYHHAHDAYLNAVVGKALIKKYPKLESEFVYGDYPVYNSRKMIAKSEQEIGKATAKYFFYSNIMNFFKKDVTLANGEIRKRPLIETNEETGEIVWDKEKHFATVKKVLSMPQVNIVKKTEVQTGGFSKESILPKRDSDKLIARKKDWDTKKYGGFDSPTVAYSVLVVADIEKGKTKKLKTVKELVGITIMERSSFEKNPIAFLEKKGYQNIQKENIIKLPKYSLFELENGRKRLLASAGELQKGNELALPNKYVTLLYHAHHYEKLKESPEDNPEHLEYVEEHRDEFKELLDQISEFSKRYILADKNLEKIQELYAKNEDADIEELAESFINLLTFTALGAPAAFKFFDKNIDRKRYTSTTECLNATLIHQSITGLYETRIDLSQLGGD
Assay: cell_activity; +++; K562, second nick guide SEQ 380; PAM not stated
Description: The ability of the candidate endonucleases, including endonucleases 1-38 (CasEnds 1-38) (set forth in Table 1 and SEQ ID NOS: 1-38, respectively), to mediate target nucleic acid editing in cells was assessed by amplicon sequencing of the endogenous hemoglobin subunit beta (eHBB) gene, wherein the percent of amplicons displaying the intended edit is measured. The editing system is comprised of a template RNA (designed to introduce the Single Nucleotide Polymorphism), a second nick guide RNA, and a fusion protein consisting of retroviral reverse transcriptase and the individual subject Cas endonuclease.
Briefly, 250 ng of plasmid DNA encoding the subject fusion protein (containing one of the subject CasEnds), 250 ng each of plasmid DNA encoding the template RNA and the second nick guide RNA were added to 15 μL Lonza SF buffer containing 250,000 K562 cells. Nucleofection was mediated utilizing program FF-120-DA on a Lonza nucleofector. The day of nucleofection was marked as day 0. At day 3, the cells were harvested and subjected to lysis buffer treatment overnight. Genomic DNA was extracted and used for targeted amplicon sequencing to evaluate the performance of each Cas endonucleases based on their percent edit efficiencies.

B1: HBB template RNA ; HBB protospacer (ssRNA ; dsDNA)
RNA: CAUGGUGCACCUGACUCCUGGUUUUAGAGCUAGAAAUAGCAAGUUAAAAUAAGGCUAGUCCGUUAUCAACUUGAAAAAGUGGCACCGAGUCGGUGCACGGCAGACUUCUCUGCCGGAGUCAGGUGC
DNA 1: CATGGTGCACCTGACTCCTG
DNA 2: CAGGAGTCAGGTGCACCATG
- activity: ≥ 100 % of reference
